Measured values taken from the supplement of paper PMC9170038.

System: K4 kissing-loop RNA reporter
Experiment: apparent KD of K4 kissing-loop reporter; higher = weaker reporter binding
Conditions: Eterna round: R107
Description: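 RNA-MaP round R107: designed RNA switches with theophylline, tryptophan, arginine or FMN aptamers are transcribed on-chip within common flanks. They are titrated with a labelled K4 kissing-loop RNA reporter in RNA-MaP buffer (100 mM Tris pH 7.5, 80 mM KCl, 4 mM MgCl2), without ligand or with the indicated ligand. Median apparent KD per design.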

[1] = input ligand: theophylline 20 uM
[2] = input ligand: tryptophan 2.4 mM
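Also: bound reporter read as fluorescence of individual clusters on recovered sequencing chips by microscopy, with normalized cluster intensities fitted with a binding model.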

Sequence	apparent KD of K4 kissing-loop reporter (input ligand: FMN 200 uM)	apparent KD of K4 kissing-loop reporter (input ligand: arginine 13.2 mM)	apparent KD of K4 kissing-loop reporter (input ligand: none)	apparent KD of K4 kissing-loop reporter [1]	apparent KD of K4 kissing-loop reporter [2]
UCUGUUGUAUAUGAUACCAGCAGUGAGAGAUGAGAAGUAUAGUGAUGUUAUAUGAGAGAAUGCCCUUGGCAGCGUGUGCGUGUGG [SSTheophylB.aC]	105 nM	98.3 nM	83.2 nM	100 nM	76.9 nM
UCUUUUGGCAUGGAUAGAAUGCCGACCGAUACCAGCAAAGUAGGAUGCCCUUGGCAGCGGAGUGAUGUUCCAUUGUCGCGGUUUG [theeternabot_exclusion_KL_Theo_A_48]	82.7 nM	91.3 nM	86.9 nM	84.4 nM	76.9 nM
UGACAUUGCUCAGAUACCAGACAUGAGCAUCAGCCAUGUACCAAGAAAGUACAAUAAAAUGUCCCUUGGCAGCUGAGCAAUGUCU [TheoBX 8]	56.1 nM	25.6 nM	47.8 nM	121 nM	48.4 nM
UGACAUUGCUCAGAUACCAGACAUGAGCAUCAGCCAUGUGCCAAAACGUACUAAAUAAAUGUCCCUUGGCAGCUGAGCAAUGUCU [TheoBX 13]	65 nM	26.3 nM	40.7 nM	73.3 nM	61.3 nM
UGACUGGACUGAAGGAGCGCUGAAGGAGCGUAAGCAGUGAUGUUGCUUACAGGUAGGUCGCAGCAGGUAGGUCGCAGUCUAGUCU	93.5 nM	78.7 nM	93.4 nM	90 nM	99.6 nM
UGACUGGAUGGAAGGAGCGCUAAACUCCUAGUGAUGUUAGGGAAAUGAGGCAAAGCCUCGAGGCAGGUAGGUCGCCAUCUAGUCU [FiskerMod 18 - Jieux - Same State - Arginine B]	160 nM	121 nM	155 nM	148 nM	144 nM
UGAUACCAGACGGCCGCCACUACACCAGUCAAAGACUGGAUGUGAAAUUCGACCAGUGAUGUUGGUAGGACCGGGUCUGGUAUCU [TrypBX 8 #SwitchBubble #StaticStem]	383 nM	313 nM	379 nM	347 nM	591 nM
UGAUACCAGACGGCCGCCACUCCCGCAGGUCAAAGACCUGCGAAGCUGGUUCUUCAGUGAUGUUGGAGGACCGGGUCUGGUAUCU [FiskerMod 24 - Jieux - Exclusion - Tryptophan B]	306 nM	230 nM	266 nM	263 nM	504 nM
UGAUACCAGACGGCCGCCACUCCUGCAGUCAAAAGACUGCUAAAGGAAAUCGUCCAGUGAUGUUGGAGGACCGGGUCUGGUAUCU [TrypBX 16 #SwitchBubble #Palindromic #StaticStem]	1120 nM	719 nM	1380 nM	991 nM	403 nM
UGAUACCAGACGGCCGCCACUGCACCAGUCAAUGACUGAGUGUGGUAAUGCUCAGUGAUGUUGAGUAGGACCGGGUCUGGUAUCU [Mod of Eli's TrypBX 8 v2]	135 nM	124 nM	131 nM	114 nM	124 nM
UGAUACCAGACUGAUACCAGCAAGUGAUGUUUGUUGAUCAAAAGCAGUCAAAGACUGCUUUGCCCUUGGCAGCAGUCUGGUAUCU [#10 K4 Theophylline B Exclusion]	167 nM	148 nM	166 nM	276 nM	141 nM
UGAUACCAGACUGAUACCAGCCAGUGAUGUUGGCUAAGCCAAAUAGGUGUCAAAGACACCGGCCCUUGGCAGCAGUCUGGUAUCU [TheoBX 2 #SwitchBubble #StaticStem]	133 nM	113 nM	126 nM	136 nM	119 nM
UGAUACCAGACUGAUACCAGCGAGUGAUGUUCGCUGAAAUCAGGGUCAAAGACCCUGUCUCGCCCUUGGCAGCAGUCUGGUAUCU [TheoBX 20 #SwitchBubble #StaticStem]	147 nM	120 nM	133 nM	185 nM	128 nM
UGAUAGGACAGAAGGAGCGGAAGUGAUGUUUCCUAAAGGAUAAAGGUGUCAAAGACACCCUUCCAGGUAGGUCGCUGUCCUAUCU [ArgBX 16 #Palindromic #SwitchBubble #StaticStem]	549 nM	923 nM	579 nM	532 nM	566 nM
UGAUAGGACAGAAGGAGCGGGAGUGAUGUUCCCAAAAGGGUAAGGUGUCAAAAGACACCCUUCCAGGUAGGUCGCUGUCCUAUCU	97.7 nM	105 nM	97.5 nM	102 nM	83.9 nM
UGAUAGGACAGAAGGAGCGGUAGUGAUGUUACCAAAAGGAUAAGGUGUCAAAAGACACCCUACCAGGUAGGUCGCUGUCCUAUCU	124 nM	112 nM	107 nM	85.1 nM	109 nM

Sequence	apparent KD of K4 kissing-loop reporter (input ligand: FMN 200 uM)	apparent KD of K4 kissing-loop reporter (input ligand: arginine 13.2 mM)	apparent KD of K4 kissing-loop reporter (input ligand: none)	apparent KD of K4 kissing-loop reporter [1]	apparent KD of K4 kissing-loop reporter [2]
UGAUAGGACAGAAGGAGCGGUAGUGAUGUUACCAAAAGGUUAAGGUGUCAAAAGACACCCUACCAGGUAGGUCGCUGUCCUAUCU	152 nM	164 nM	161 nM	126 nM	136 nM
UGAUAGGACAGAAGGAGCGGUAGUGAUGUUGCCAAAAGUAUAAGGUGUCAAAAGACACCCUACCAGGUAGGUCGCUGUCCUAUCU	319 nM	346 nM	354 nM	541 nM	340 nM
UGAUCUCGGCAGUGAUGUUGCAUAUGAGAAGGAGCGCACGAAAGUGCAGGUAGGUCGCUCAGCCAAAGAAAAUAAAACGAGAUCU [#SwitchBubble #K4Early]	93.4 nM	121 nM	101 nM	124 nM	82 nM
UGCGCUGUGUCCUAAAAUGUCCUCCGGGAUACCAGAGUCUUUUUAUUCCCUUGGCAGCUUGAGUGAUGUUUGAUGCCGUUCUUGU [xxbxymullin]	811 nM	478 nM	790 nM	519 nM	607 nM
UGGACAUGACUCGAUAAGAGUCAAUGGGAUACCAGUGACGAAAGUCACCCUUGGCAGCUCAACUGCCAGUGAUGUUGGUAGUCCA [Astros-Elo-mod#2]	231 nM	129 nM	224 nM	134 nM	166 nM
UGGACCUGACUCGAUAAGAGUCAAGGAGAUACCAGCCACGAAAGUGGCCCUUGGCAGCUCUGCCAGUGAUGUUGGUCAAGGUCCU [#SwitchBubble 7 #StaticStem]	976 nM	696 nM	912 nM	393 nM	776 nM
UGGAGUUGACGAAAAGUCAACUCCAGAGAAGGAGCGGACGAAAGUCCAGGUAGGUCGCUCACUACCAGUGAUGUUGGUACUAAAA	167 nM	190 nM	204 nM	204 nM	181 nM
UGGAGUUGACGAAAAGUCAACUCCUGGGAAGGAGCGGACGAAAGUCCAGGUAGGUCGCUCACUACCAGUGAUGUUGGUACUUAAA	229 nM	350 nM	293 nM	299 nM	206 nM
UGGAUAUAGUGAUGUUAUAUAGAGAUGGAUACCAGCUAAGAGAAUAGCCCUUGGCAGCCGAAAGAAGUAUCAUUAGAGAAGAAUG [ExTheophyl.Ae]	294 nM	231 nM	280 nM	253 nM	212 nM
UGGCGGACGAUCCGGAGUGAUGUUCCGGAUACCAGCAGAAGAGCCUGCCCUUGGCAGCCGUACGACGCUGGGAGAGUCCGGCGUC [Soteina]	83.8 nM	90.3 nM	81.1 nM	66.7 nM	76.9 nM
UGGGCCGCCUGAGGAUAUAGAGACGAGUGAUGUUCGUGGAUAAGAGCCAGUGAUGUUGGGUUAUUUCUAGAAGGCGGGCGAACUU [Exclusion FMN B GF9]	144 nM	95.1 nM	98.6 nM	164 nM	131 nM
UGGUUUAACUGAAGGAGCGGCAAUUGAUAAGUAGAUAUAGUGAUGUUAUAUAAGAUAGAGAGCCAGGUAGGUCGCAGAGGUAUUU [ExArgB.P]	215 nM	218 nM	212 nM	248 nM	197 nM
UGUAAUUCGGCGGCCGCCACUGACCAUAGCCUUCGAUGGCCAGUGAUGUUGGCCUCUGGCUCUAACAGGACCGGGCCGAAUUGCG [Sotetiqu]	243 nM	133 nM	178 nM	157 nM	116 nM
UGUACCGACUCAGGAUAUGUCGUCGAAAGACGAAAUGGAGUGAUGUUCCUUAAACUGCGAAAGCAGACAGAAGGGAGUUGGUACU [FmnBS 29 C9+G77]	137 nM	200 nM	235 nM	233 nM	216 nM
UGUACCGAGUCAGGAUAUCAUAAUAAAUCCAGUGAUGUUGGAAUAACCAGUACAAAGUACUGGCCUUGAGAAGGGACUUGGUACU [FmnBS 3 #SwitchBubble #StaticStem]	167 nM	146 nM	163 nM	147 nM	147 nM
UGUAUGUGAUUUGAUACCAGACCAGCUGGUGGUUCACGAGUGAUGUUCGUGUUGGUUUGGGUCCCUUGGCAGCAAAUCGCAUACU [KL-SSTheoB12]	159 nM	121 nM	144 nM	128 nM	140 nM
